Laboratory results published in paper PMC5063714 (Journal of medicinal chemistry, 2016).
Square brackets hold non-standard residues; d marks the D form. Side chains are listed from the residue outwards. Ends that are not written are not given here. * marks the point of attachment. pyrrolidinyl = lysine with its side-chain amine cyclized into a pyrrolidine ring; azepanyl = lysine epsilon-N closed into a 7-membered azepane ring; piperidinyl = lysine epsilon-N closed into a piperidine ring; Lys(Me3) = C[N+](C)(C)CCCC[C@H](N)C(=O)O; NMeF = CN[C@@H](Cc1ccccc1)C(=O)O; dicyclobutyl = not defined here; diethyl = not defined here; Cyclopentyl = C1CCC(*)C1; cyclohexyl = C1CCC(*)CC1; Bz = O=C(c1ccccc1)*; iPr = CC(C)*

T1: chromodomain of CBX4 (human, UniProt O00257-1 8-65)
T1 sequence (looked up): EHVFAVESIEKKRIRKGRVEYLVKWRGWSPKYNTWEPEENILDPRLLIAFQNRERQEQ

T2: chromodomain of CBX7 (human, UniProt O95931 8-62)
T2 sequence (looked up): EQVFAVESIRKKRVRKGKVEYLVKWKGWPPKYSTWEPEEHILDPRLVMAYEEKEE

T3: chromodomain of CDYL2 (human, UniProt Q8N8U2 1-75)
T3 sequence (looked up): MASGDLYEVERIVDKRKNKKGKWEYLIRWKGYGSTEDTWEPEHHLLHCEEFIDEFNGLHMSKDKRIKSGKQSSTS

B1: compound 10 (peptide)
peptide: GFALKS
modifications: N-terminal benzoyl (Bz) cap; N-methylated glycine amide (N(me)Gly); trimethyl-lysine (Kme3); C-terminal methyl ester (Ser-OMe)
B2: compound 3 (peptide)
peptide: Bz-Ala-Leu-[Lys(Me3)]-NHMe
SMILES: CNC(=O)[C@H](CCCC[N+](C)(C)C)NC(=O)[C@H](CC(C)C)NC(=O)[C@H](C)NC(=O)c1ccccc1
B3: compound 1 (UNC3866) (peptide)
peptide: FALKS
modifications: N-terminal para-t-butyl benzoyl cap; diethyl-lysine in lieu of Kme3; C-terminal methyl ester

Each binder was assayed against T1, chromodomain of CBX4 (assay: AlphaScreen or HTRF).

| Binder | IC50 |
| --- | --- |
| {4‑tBu‑Bz}-FALK(diethyl)S-NMe2 (reading uncertain) [compound 45] | 140 nM |
| {4‑tBu‑Bz}-FALK(diethyl)S-OH (reading uncertain) [compound 44] | 240 nM |
| {4‑tBu‑Bz}-FALK(diethyl)S (reading uncertain; also: C-terminal carbonyl removed entirely (R3 = -H)) [compound 46] | 200 nM |
| {4‑tBu‑Bz}-F(CH2NHBoc)ALK(diethyl)S-OMe (reading uncertain) [compound 48] | 98 nM |
| {4‑tBu‑Bz}-F(CH2NH2)ALK(diethyl)S-OMe (reading uncertain) [compound 47] | 170 nM |

What follows are binders tested against T2, chromodomain of CBX7 (assay: AlphaScreen or HTRF).

| Binder | IC50 |
| --- | --- |
| {4‑tBu‑Bz}-FALK(diethyl)S-NMe2 (reading uncertain) [compound 45] | 47 nM |
| {4‑tBu‑Bz}-FALK(diethyl)S-OH (reading uncertain) [compound 44] | 130 nM |
| {4‑tBu‑Bz}-FALK(diethyl)S (reading uncertain; also: C-terminal carbonyl removed entirely (R3 = -H)) [compound 46] | 75 nM |
| {4‑tBu‑Bz}-F(CH2NHBoc)ALK(diethyl)S-OMe (reading uncertain) [compound 48] | 56 nM |
| {4‑tBu‑Bz}-F(CH2NH2)ALK(diethyl)S-OMe (reading uncertain) [compound 47] | 63 nM |

What follows are binders tested against T3, chromodomain of CDYL2 (assay: AlphaScreen or HTRF).

| Binder | IC50 |
| --- | --- |
| {4‑tBu‑Bz}-FALK(diethyl)S-NMe2 (reading uncertain) [compound 45] | 360 nM |
| {4‑tBu‑Bz}-FALK(diethyl)S-OH (reading uncertain) [compound 44] | 740 nM |
| {4‑tBu‑Bz}-FALK(diethyl)S (reading uncertain; also: C-terminal carbonyl removed entirely (R3 = -H)) [compound 46] | 410 nM |
| {4‑tBu‑Bz}-F(CH2NHBoc)ALK(diethyl)S-OMe (reading uncertain) [compound 48] | 160 nM |
| {4‑tBu‑Bz}-F(CH2NH2)ALK(diethyl)S-OMe (reading uncertain) [compound 47] | 75 nM |

The binders below were run against chromodomain of CBX5 (human) (assay: AlphaScreen or HTRF).
Chain of chromodomain of CBX5 (human) (Q9UN86 18-75): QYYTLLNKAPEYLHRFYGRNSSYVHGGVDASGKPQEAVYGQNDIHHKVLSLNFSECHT

| Binder | IC50 |
| --- | --- |
| Bz-GFAL[Lys(Me3)]S-OMe [compound 6] | > 60000 nM |
| Bz-G[NMeF]AL[Lys(Me3)]S-OMe [compound 9] | > 60000 nM |
| B1 | > 60000 nM |
| Bz-GFALKS-OMe (not fully specified (residues 3, 5)) [compound 8] | > 60000 nM |
| B2 | > 60000 nM |

Target: chromodomain of CBX5 (human)
Assay: AlphaScreen or HTRF
Remark: another data set of the same source

| Binder | IC50 |
| --- | --- |
| Bz-GFALK(dimethyl)S-OMe [compound 17] | > 60000 nM |
| Bz-GFALK(pyrrolidinyl)S-OMe [compound 19] | > 60000 nM |
| Bz-GFALK(adamantyl)S-OMe [compound 16] | > 60000 nM |
| Bz-GFALK(Cyclopentyl)S-OMe [compound 13] | > 60000 nM |
| Bz-GFALK(dicyclobutyl)S-OMe (reading uncertain) [compound 22] | > 60000 nM |
| Bz-GFALK(diethyl)S-OMe (reading uncertain) [compound 18] | > 60000 nM |
| Bz-GFALK(iPr)S-OMe [compound 12] | > 60000 nM |
| Bz-GFALK(azepanyl)S-OMe [compound 21] | > 60000 nM |
| Bz-GFALKS-OMe [compound 11] | > 60000 nM |
| Bz-GFALK(piperidinyl)S-OMe [compound 20] | > 60000 nM |
| Bz-GFALK(cyclohexyl)S-OMe [compound 14] | > 60000 nM |
| Bz-GFALK([norbornyl-Ac])S-OMe [compound 23] | > 60000 nM |
| Bz-GFALK(tetramethylguanidino)S-OMe [compound 24] | > 60000 nM |
| Bz-GFALK(norbornyl)S-OMe [compound 15] | > 60000 nM |

Target: chromodomain of CBX5 (human)
Assay: AlphaScreen or HTRF
Remark: another data set of the same source

| Binder | IC50 |
| --- | --- |
| {4‑Et‑Bz}-FALK(diethyl)S-OMe (reading uncertain) [compound 31] | 14000 nM |
| {t‑butylbenzyl}-FALK(diethyl)S-OMe (reading uncertain) [compound 36] | > 60000 nM |
| Bz-FALK(diethyl)S-OMe (reading uncertain) [compound 27] | 6900 nM |
| {4‑iPr‑Bz}-FALK(diethyl)S-OMe (reading uncertain) [compound 32] | 38000 nM |
| {4‑tBu‑Bz}-FAL[Lys(Me3)]S-OMe [compound 39] | > 60000 nM |
| B3 | > 60000 nM |
| {4‑Me‑Bz}-FALK(diethyl)S-OMe (reading uncertain) [compound 30] | 21000 nM |
| {3‑Me‑Bz}-FALK(diethyl)S-OMe (reading uncertain) [compound 29] | > 60000 nM |
| {4‑CO2Me‑Bz}-FALK(diethyl)S-OMe (reading uncertain) [compound 33] | 26000 nM |
| {4‑CF3‑Bz}-FALK(diethyl)S-OMe (reading uncertain) [compound 34] | 33000 nM |
| {2‑Me‑Bz}-FALK(diethyl)S-OMe (reading uncertain) [compound 28] | > 60000 nM |

Target: chromodomain of CBX5 (human)
Assay: AlphaScreen or HTRF
Remark: another data set of the same source

| Binder | IC50 |
| --- | --- |
| {4‑tBu‑Bz}-FALK(diethyl)S-NMe2 (reading uncertain) [compound 45] | > 60000 nM |
| {4‑tBu‑Bz}-FALK(diethyl)S-OH (reading uncertain) [compound 44] | > 60000 nM |
| {4‑tBu‑Bz}-FALK(diethyl)S (reading uncertain; also: C-terminal carbonyl removed entirely (R3 = -H)) [compound 46] | > 60000 nM |
| {4‑tBu‑Bz}-F(CH2NHBoc)ALK(diethyl)S-OMe (reading uncertain) [compound 48] | 44000 nM |
| {4‑tBu‑Bz}-F(CH2NH2)ALK(diethyl)S-OMe (reading uncertain) [compound 47] | 53000 nM |

Target: T1, chromodomain of CBX4
Assay: AlphaScreen or HTRF
Remark: another data set of the same source

| Binder | IC50 |
| --- | --- |
| {4‑Et‑Bz}-FALK(diethyl)S-OMe (reading uncertain) [compound 31] | 190 nM |
| {t‑butylbenzyl}-FALK(diethyl)S-OMe (reading uncertain) [compound 36] | 9700 nM |
| Bz-FALK(diethyl)S-OMe (reading uncertain) [compound 27] | 3000 nM |
| {4‑iPr‑Bz}-FALK(diethyl)S-OMe (reading uncertain) [compound 32] | 160 nM |
| B3 | 83 nM |
| {4‑Me‑Bz}-FALK(diethyl)S-OMe (reading uncertain) [compound 30] | 770 nM |
| {3‑Me‑Bz}-FALK(diethyl)S-OMe (reading uncertain) [compound 29] | 2700 nM |
| {4‑CO2Me‑Bz}-FALK(diethyl)S-OMe (reading uncertain) [compound 33] | 1200 nM |
| {4‑CF3‑Bz}-FALK(diethyl)S-OMe (reading uncertain) [compound 34] | 480 nM |
| {2‑Me‑Bz}-FALK(diethyl)S-OMe (reading uncertain) [compound 28] | 58000 nM |

Target: T2, chromodomain of CBX7
Assay: AlphaScreen or HTRF
Remark: another data set of the same source

| Binder | IC50 |
| --- | --- |
| {4‑Et‑Bz}-FALK(diethyl)S-OMe (reading uncertain) [compound 31] | 81 nM |
| {t‑butylbenzyl}-FALK(diethyl)S-OMe (reading uncertain) [compound 36] | 4400 nM |
| Bz-FALK(diethyl)S-OMe (reading uncertain) [compound 27] | 1200 nM |
| {4‑iPr‑Bz}-FALK(diethyl)S-OMe (reading uncertain) [compound 32] | 61 nM |
| B3 | 37 nM |
| {4‑Me‑Bz}-FALK(diethyl)S-OMe (reading uncertain) [compound 30] | 220 nM |
| {3‑Me‑Bz}-FALK(diethyl)S-OMe (reading uncertain) [compound 29] | 740 nM |
| {4‑CO2Me‑Bz}-FALK(diethyl)S-OMe (reading uncertain) [compound 33] | 570 nM |
| {4‑CF3‑Bz}-FALK(diethyl)S-OMe (reading uncertain) [compound 34] | 230 nM |
| {2‑Me‑Bz}-FALK(diethyl)S-OMe (reading uncertain) [compound 28] | 25000 nM |

Target: T3, chromodomain of CDYL2
Assay: AlphaScreen or HTRF
Remark: another data set of the same source

| Binder | IC50 |
| --- | --- |
| {4‑Et‑Bz}-FALK(diethyl)S-OMe (reading uncertain) [compound 31] | 100 nM |
| {t‑butylbenzyl}-FALK(diethyl)S-OMe (reading uncertain) [compound 36] | 200 nM |
| Bz-FALK(diethyl)S-OMe (reading uncertain) [compound 27] | 340 nM |
| {4‑iPr‑Bz}-FALK(diethyl)S-OMe (reading uncertain) [compound 32] | 100 nM |
| {4‑tBu‑Bz}-FAL[Lys(Me3)]S-OMe [compound 39] | 110 nM |
| B3 | 140 nM |
| {4‑Me‑Bz}-FALK(diethyl)S-OMe (reading uncertain) [compound 30] | 280 nM |
| {3‑Me‑Bz}-FALK(diethyl)S-OMe (reading uncertain) [compound 29] | 340 nM |
| {4‑CO2Me‑Bz}-FALK(diethyl)S-OMe (reading uncertain) [compound 33] | 110 nM |
| {4‑CF3‑Bz}-FALK(diethyl)S-OMe (reading uncertain) [compound 34] | 130 nM |
| {2‑Me‑Bz}-FALK(diethyl)S-OMe (reading uncertain) [compound 28] | 560 nM |
